According to patent US20180335429:

Tests used:
[1] = test system: MMP substrate, 5-FAM-GGPLGVRGKK(CPQ2)-PEG2-C, presented on the iron-oxide nanoparticle (ABN) surface
[2] = test system: T1, thrombin substrate, 5-FAM-GGfPRSGGGK(CPQ2)-PEG2-C, presented on the nanoparticle surface
T1 sequence: GGFPRSGGGKC

Sequence of recombinant MMP-9 (Enzo Life Sciences) (chain, as listed by the source): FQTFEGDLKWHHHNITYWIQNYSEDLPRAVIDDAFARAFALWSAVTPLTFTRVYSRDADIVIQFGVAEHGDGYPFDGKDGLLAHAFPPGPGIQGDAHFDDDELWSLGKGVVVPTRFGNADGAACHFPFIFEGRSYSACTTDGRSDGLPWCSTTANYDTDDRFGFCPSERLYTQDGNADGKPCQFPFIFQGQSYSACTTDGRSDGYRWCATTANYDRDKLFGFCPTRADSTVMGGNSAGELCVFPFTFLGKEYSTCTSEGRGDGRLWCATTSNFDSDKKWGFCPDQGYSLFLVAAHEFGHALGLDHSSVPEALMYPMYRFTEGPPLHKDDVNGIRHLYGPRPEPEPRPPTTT

With recombinant MMP-9 (Enzo Life Sciences) the “cleavage velocity (V) at 6 µM substrate, high end over the tether lengths tested (0, 4, 24 and 114 PEG subunits)” value [1] was “cleavage velocity (V) increased from 0.24 to 0.96 nM s^-1 at 6 µM”, the “cleavage velocity (V) at 6 µM substrate, low end over the tether lengths tested (0, 4, 24 and 114 PEG subunits)” value [1] was “cleavage velocity (V) increased from 0.24 to 0.96 nM s^-1 at 6 µM” and the “fold change of cleavage with tether length at 6 µM substrate” value [1] was “MMP9 cleavage was found to increase 4-fold for 6 µM of substrate”.

For thrombin (Haematologic Technologies), the “cleavage velocity (V) at 6 µM substrate, long tether end” value [1] was “V at 6 µM of substrate decreased from 0.29 to 0.01 nM s^-1”, the “cleavage velocity (V) at 6 µM substrate, short tether end” value [1] was “V at 6 µM of substrate decreased from 0.29 to 0.01 nM s^-1” and the “fold change of cleavage with tether length at 6 µM substrate” value [1] was “thrombin cleavage decreased 1-fold at the same substrate concentration”. The “cleavage of the substrate at varying linker lengths” value [2] was “thrombin cleavage of a thrombin-selective substrate (fPRSGGG ...) was optimally presented at an intermediate length”.
